Measured values published in US20220289837A1, “Cystic Fibrosis Transmembrane Conductance Regulator Stabilizing Agents” (VIB VZW, priority 2019, published 2022).
Numbering of substitutions follows the chain as printed.

B1: T2a: NBD1-specific CFTR-stabilizing nanobody, SEQ ID NO:3, binds epitope 1 (protein)
VHH: QVQLQESGGGLVQAGGSLRLSCAASGSIFRIDAMGWYRQAPGKQRELVAHSTSGGSTDYADSVKGRFTISRDNAKNTVYLQMNSLKPEDTAVYYCNADVRTRWYASNNYWGQGTQVTVSS
modifications: T2a Nanobody amino acid sequence
B2: D12: NBD1-specific CFTR-stabilizing nanobody, SEQ ID NO:2, binds epitope 1 (protein)
VHH: QVQLQESGGGLVQAGSSLRLACAATGSIRSINNMGWYRQAPGKQRGMVAIITRVGNTDYADSVKGRFTISRDNAKNTVYLQMNSLKPEDTATYYCHAEITEQSRPFYLTDDYWGQGTQVTVSS
modifications: D12 Nanobody amino acid sequence
B3: G5: NBD1-binding nanobody, SEQ ID NO:5, same binding site as T2a, T27 and D12 (protein)
VHH: B2 VHH with S16G, S30N, N33T, G46D, I50F, V54A, K75R, Q81R, T100A, Q102R
modifications: G5 Nanobody amino acid sequence
B4: G3a: non-stabilizing nanobody, SEQ ID NO:50, recognizes the structurally diverse region of NBD1 (protein)
VHH: QVQLQESGGGLVQAGGSLRLSCTASGRAFSWYVMGWFRQAPGKEREFVATVSGNGSRRDYADSVKGRFTISRDNAKNTVYLQMNSLKPEDTAVYYCAASSTYYYTDPEKYDYWGQGTQVTVSS
modifications: G3a Nanobody
B5: T8: nanobody, SEQ ID NO:7, binds epitope 2 including F508, stabilizes WT CFTR but not F508del (protein)
VHH: QVQLQESGGGLVQPGGSLRLSCAASGSTSSINAMGWYRQAPGKQREPVAISSSGGDTRYAEPVKGRFTISRDNAQNKVYLQMNSLKPEDTAVYYCWLNWGRTSVNSWGQGTQVTVSS
modifications: T8 Nanobody amino acid sequence

Columns and labels:
Type in all cases: cell-based
3HA-F508del-CFTR [1] = biological target: T1, 3HA-F508del-CFTR (Homo sapiens, UniProt P13569, DEL508-508); assay: Cell-surface expression of F508del-CFTR in HEK-293T cells by flow cytometry; conditions: extracellular 3HA-tag, Nb transfected and/or VX-809
T1 construct: expressed in transfected cells
T1 sequence (P13569 with tags, fused parts or gaps DEL508-508): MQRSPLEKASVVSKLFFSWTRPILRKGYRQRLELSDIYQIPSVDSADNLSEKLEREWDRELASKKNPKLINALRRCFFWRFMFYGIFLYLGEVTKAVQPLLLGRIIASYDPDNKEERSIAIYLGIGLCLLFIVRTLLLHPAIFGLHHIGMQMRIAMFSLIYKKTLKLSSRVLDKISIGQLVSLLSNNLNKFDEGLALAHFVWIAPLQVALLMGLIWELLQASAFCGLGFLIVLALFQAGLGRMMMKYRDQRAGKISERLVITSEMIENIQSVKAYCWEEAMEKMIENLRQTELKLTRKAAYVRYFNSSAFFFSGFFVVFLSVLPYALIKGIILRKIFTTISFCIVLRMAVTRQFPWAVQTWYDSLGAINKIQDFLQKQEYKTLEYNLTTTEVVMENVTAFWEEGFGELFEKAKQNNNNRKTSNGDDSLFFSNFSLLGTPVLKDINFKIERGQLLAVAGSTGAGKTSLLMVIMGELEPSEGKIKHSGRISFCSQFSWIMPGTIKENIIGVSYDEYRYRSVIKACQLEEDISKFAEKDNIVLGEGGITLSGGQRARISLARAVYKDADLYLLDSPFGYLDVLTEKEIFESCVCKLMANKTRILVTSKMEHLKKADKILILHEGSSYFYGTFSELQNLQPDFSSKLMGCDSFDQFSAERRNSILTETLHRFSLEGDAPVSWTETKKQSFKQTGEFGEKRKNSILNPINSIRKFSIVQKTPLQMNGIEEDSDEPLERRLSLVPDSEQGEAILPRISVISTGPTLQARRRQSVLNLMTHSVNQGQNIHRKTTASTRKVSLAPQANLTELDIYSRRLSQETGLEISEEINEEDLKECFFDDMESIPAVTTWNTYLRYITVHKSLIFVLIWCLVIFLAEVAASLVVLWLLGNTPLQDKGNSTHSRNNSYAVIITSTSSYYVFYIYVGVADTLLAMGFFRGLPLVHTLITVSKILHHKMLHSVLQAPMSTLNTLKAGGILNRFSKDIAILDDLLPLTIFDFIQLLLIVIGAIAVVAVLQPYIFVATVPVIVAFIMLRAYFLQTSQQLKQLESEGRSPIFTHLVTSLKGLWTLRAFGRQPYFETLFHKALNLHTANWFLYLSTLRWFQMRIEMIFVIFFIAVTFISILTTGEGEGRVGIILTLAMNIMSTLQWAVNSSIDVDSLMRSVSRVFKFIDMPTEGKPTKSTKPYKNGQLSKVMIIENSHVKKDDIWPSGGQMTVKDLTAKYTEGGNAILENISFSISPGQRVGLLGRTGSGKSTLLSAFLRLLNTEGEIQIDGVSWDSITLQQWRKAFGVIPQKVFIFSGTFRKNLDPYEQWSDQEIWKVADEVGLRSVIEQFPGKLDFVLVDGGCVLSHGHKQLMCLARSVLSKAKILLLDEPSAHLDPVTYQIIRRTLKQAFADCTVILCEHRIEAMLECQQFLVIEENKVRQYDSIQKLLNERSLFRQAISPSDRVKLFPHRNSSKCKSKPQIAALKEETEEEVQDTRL
Method: (§1) HEK293T cells expressing F508del-CFTR with an engineered extracellular 3HA tag were transiently transfected with the stabilizing Nbs, as well as control Nbs. The effect on F508del mutant CFTR expression and maturation was measured by flow cytometry, Western Blot and fluorescence microscopy. Next, the effect of the transfection of each Nb was measured in the absence or presence of the correctors VX-809 (lumacaftor) or VX-661 (Tezacaftor).
(§2) Stable cell lines were generated by lentiviral transduction as described in (Ensinck, et al. 2020). CFTR variants were cloned to contain a triple hemagglutinin (3HA) tag in the fourth extracellular loop (EC-loop) of CFTR (Sharma, et al. 2004) for maturation and trafficking studies. For HS-YFP quenching studies, double stable cell lines were generated, co-expressing stable HS-YFP (Galietta, et al. 2001).

3HA-F508del-CFTR [2] = biological target: T1, 3HA-F508del-CFTR; assay: Immunostaining of cell-surface expression in F508del-CFTR HEK-293T cells
Method: as §2
For PM staining, cells were blocked with 1% BSA-PBS and incubated with HA.11 antibody (#901515, Biolegend 1:1000) at 4° C. on living cells. Next, cells were fixed (4% PFA) followed by Alexa-488 secondary antibody (#A-11001, Thermo Fischer Scientific, 1:500). Nuclei were stained with DAPI (4′,6-diamidino-2-fenylindole, #D1306, Thermo Fischer Scientific, 1:2000) and sections analyzed by confocal microscopy.

3HA-F508del-CFTR [3] = biological target: T1, 3HA-F508del-CFTR; assay: CFTR protein maturation by Western Blot in 3HA-F508del-CFTR HEK-293T cells; conditions: for band C (fully glycosylated mature CFTR): FIG. 15, Nb transfected and/or VX-809; for mature CFTR protein band (band C): FIG. 17, Nb transfected and/or VX-661
Method: as §1, §2
Cell extracts were separated by SDS-PAGE on 7.5% polyacrylamide gel and transferred to nitrocellulose membrane (Bio-Rad) for immunodetection. After blocking for 1 h with 5% bovine serum albumin (BSA) in Tris-buffered saline added 0.05% Tween-20 (TBST), CFTR was detected using monoclonal antibody mAb 596, IgG2b (CFTR Antibody Distribution Program, dilution 1:46) for 1 h in blocking buffer. Blot was washed 3 times 5 min and incubated with anti-mouse-HRP antibody (Millipore, catalogue number: AP308P, 0.2 μg/ml) for 1 h in TBST. Membrane was washed 3 times for 5 min. CFTR was visualized by chemiluminescence using Luminata Forte Western HRP Substrate (Millipore) and detected with ImageQuant 400 (GE Healthcare).

| Molecule | cell-surface expression of F508del-CFTR (3HA-F508del-CFTR [1]) | cell-surface immunostaining (3HA-F508del-CFTR [2]) | band C (fully glycosylated mature CFTR) (3HA-F508del-CFTR [3]) | mature CFTR protein band (band C) (3HA-F508del-CFTR [3]) |
| --- | --- | --- | --- | --- |
| B1 | moderate increase in surface expression | moderate staining | detectable | only a minor effect |
| B2 | moderate increase in surface expression | – | – | – |
| B3 | moderate increase in surface expression | – | – | – |
| B4 | No effect | – | no effect | detectable |
| B5 | No effect | – | no effect | – |
